Measured values reported in paper PMC10837151, “Asymmetric nucleosome PARylation at DNA breaks mediates directional nucleosome sliding by ALC1” (Nature Communications, 2024).

Target: T1, histone H4 (Xenopus laevis) (Xenopus laevis, UniProt P62799 1-103)
T1 construct: histone H4, Xenopus laevis, recombinant; In the cryo-EM structure H4 stood within the nucleosome m2; source: bought: Histone Source Protein Expression and Purification Facility, Colorado State University (purified recombinant)
Test: cryo-EM structure; modified nucleosomes at 1 µM, ALC1 at 6 µM, ADP-BeF3 at 1 mM, incubated 60 minutes on ice before vitrification
Conditions: both partners purified

- binding result: binds
B1: ALC1 (Amplified in Liver Cancer 1), wild-type construct (16-879) (enzyme)
chain: FLLRLHTEGRAEAARVQEQDLRQWGLTGIHLRSYQLEGVNWLAQRFHCQNGCILGDEMGLGKTCQTIALFIYLAGRLNDEGPFLILCPLSVLSNWKEEMQRFAPGLSCVTYAGDKEERACLQQDLKQESRFHVLLTTYEICLKDASFLKSFPWSVLVVDEAHRLKNQSSLLHKTLSEFSVVFSLLLTGTPIQNSLQELYSLLSFVEPDLFSKEEVGDFIQRYQDIEKESESASELHKLLQPFLLRRVKAEVATELPKKTEVVIYHGMSALQKKYYKAILMKDLDAFENETAKKVKLQNILSQLRKCVDHPYLFDGVEPEPFEVGDHLTEASGKLHLLDKLLAFLYSGGHRVLLFSQMTQMLDILQDYMDYRGYSYERVDGSVRGEERHLAIKNFGQQPIFVFLLSTRAGGVGMNLTAADTVIFVDSDFNPQNDLQAAARAHRIGQNKSVKVIRLIGRDTVEEIVYRKAASKLQLTNMIIEGGHFTLGAQKPAADADLQLSEILKFGLDKLLASEGSTMDEIDLESILGETKDGQWVSDALPAAEGGSRDQEEGKNHMYLFEGKDYSKEPSKEDRKSFEQLVNLQKTLLEKASQEGRSLRNKGSVLIPGLVEGSTKRKRVLSPEELEDRQKKRQEAAAKRRRLIEEKKRQKEEAEHKKKMAWWESNNYQSFCLPSEESEPEDLENGEESSAELDYQDPDATSLKYVSGDVTHPQAGAEDALIVHCVDDSGHWGRGGLFTALEKRSAEPRKIYELAGKMKDLSLGGVLLFPVDDKESRNKGQDLLALIVAQHRDRSNVLSGIKMAALEEGLKKIFLAAKKKKASVHLPRIGHATKGFNWYGTERLIRKHLAARGIPTYIYYFPRSK
notes: human ALC1/CHD1L, residues 16-879; The cryo-EM methods call the protein ALC1^fl, while the only construct described is 16-879; also called CHD1L; ALC1/CHD1L; source: E. coli Rosetta 2 (DE3), purified (HisTrap, Q/SP ion exchange, Superdex 200)
